Measurements as given in publication PMC1751550.

Biological target: full length Brn-3b GST fusion protein (UniProt Q63934)
Assay: pull-down

UniProt Q63934, sequence (Q63934 whole entry, the tested form may be a part): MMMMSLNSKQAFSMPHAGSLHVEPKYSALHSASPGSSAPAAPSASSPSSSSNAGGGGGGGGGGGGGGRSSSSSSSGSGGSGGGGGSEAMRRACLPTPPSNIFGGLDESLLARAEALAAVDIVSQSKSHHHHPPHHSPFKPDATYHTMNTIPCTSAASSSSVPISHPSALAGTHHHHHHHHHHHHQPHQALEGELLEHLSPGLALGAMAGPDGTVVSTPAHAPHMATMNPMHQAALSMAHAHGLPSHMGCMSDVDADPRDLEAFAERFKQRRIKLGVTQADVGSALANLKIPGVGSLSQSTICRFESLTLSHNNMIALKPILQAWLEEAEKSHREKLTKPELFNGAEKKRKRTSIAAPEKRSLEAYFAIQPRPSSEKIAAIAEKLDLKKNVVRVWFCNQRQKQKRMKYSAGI

percent of input retained: 15.2 % of input
Substance: in vitro translated estrogen receptor (from UniProt P03372 1-595)
